Publication PMC5748984 (The Journal of Cell Biology, 2018)

Columns and labels:
[1] = target: T1, Gdi1 (UniProt P39958 1-451); assay: SEC
T1 sequence: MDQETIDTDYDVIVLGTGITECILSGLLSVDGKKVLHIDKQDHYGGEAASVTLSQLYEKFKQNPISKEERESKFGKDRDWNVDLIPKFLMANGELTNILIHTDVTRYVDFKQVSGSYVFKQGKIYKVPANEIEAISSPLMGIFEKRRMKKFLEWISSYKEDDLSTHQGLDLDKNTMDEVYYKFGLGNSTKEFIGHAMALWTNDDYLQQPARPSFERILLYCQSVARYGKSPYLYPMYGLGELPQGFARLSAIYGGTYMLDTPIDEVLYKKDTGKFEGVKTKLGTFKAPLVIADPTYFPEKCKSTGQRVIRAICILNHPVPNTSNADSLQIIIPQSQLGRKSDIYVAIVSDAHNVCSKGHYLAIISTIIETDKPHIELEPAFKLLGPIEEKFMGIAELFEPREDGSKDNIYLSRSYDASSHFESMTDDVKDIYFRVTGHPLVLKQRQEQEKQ

[2] = target: T2, Trs85-TAP (from yeast) (budding yeast, UniProt P46944 1-698); assay: tandem affinity purification
T2 sequence: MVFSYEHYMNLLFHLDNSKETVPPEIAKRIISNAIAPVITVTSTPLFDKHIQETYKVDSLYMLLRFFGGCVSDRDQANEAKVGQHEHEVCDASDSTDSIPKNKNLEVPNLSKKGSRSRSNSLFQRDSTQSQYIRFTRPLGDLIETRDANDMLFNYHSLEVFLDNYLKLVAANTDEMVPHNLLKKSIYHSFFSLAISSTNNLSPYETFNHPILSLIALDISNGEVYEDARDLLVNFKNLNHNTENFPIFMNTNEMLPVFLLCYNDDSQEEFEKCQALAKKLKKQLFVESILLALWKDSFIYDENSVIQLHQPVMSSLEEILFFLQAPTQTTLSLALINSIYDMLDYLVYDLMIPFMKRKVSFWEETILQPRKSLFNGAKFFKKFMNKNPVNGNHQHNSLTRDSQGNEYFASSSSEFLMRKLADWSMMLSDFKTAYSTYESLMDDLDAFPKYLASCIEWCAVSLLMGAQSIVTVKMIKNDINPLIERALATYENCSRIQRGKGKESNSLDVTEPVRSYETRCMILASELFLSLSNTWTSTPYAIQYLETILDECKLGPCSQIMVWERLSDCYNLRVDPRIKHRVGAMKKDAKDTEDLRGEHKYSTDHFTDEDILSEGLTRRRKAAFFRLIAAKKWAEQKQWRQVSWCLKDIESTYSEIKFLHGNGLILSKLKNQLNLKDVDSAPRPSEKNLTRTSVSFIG

[3] = target: T3, Trs120-TAP (budding yeast, UniProt Q04183 1-1289); assay: tandem affinity purification
T3 sequence: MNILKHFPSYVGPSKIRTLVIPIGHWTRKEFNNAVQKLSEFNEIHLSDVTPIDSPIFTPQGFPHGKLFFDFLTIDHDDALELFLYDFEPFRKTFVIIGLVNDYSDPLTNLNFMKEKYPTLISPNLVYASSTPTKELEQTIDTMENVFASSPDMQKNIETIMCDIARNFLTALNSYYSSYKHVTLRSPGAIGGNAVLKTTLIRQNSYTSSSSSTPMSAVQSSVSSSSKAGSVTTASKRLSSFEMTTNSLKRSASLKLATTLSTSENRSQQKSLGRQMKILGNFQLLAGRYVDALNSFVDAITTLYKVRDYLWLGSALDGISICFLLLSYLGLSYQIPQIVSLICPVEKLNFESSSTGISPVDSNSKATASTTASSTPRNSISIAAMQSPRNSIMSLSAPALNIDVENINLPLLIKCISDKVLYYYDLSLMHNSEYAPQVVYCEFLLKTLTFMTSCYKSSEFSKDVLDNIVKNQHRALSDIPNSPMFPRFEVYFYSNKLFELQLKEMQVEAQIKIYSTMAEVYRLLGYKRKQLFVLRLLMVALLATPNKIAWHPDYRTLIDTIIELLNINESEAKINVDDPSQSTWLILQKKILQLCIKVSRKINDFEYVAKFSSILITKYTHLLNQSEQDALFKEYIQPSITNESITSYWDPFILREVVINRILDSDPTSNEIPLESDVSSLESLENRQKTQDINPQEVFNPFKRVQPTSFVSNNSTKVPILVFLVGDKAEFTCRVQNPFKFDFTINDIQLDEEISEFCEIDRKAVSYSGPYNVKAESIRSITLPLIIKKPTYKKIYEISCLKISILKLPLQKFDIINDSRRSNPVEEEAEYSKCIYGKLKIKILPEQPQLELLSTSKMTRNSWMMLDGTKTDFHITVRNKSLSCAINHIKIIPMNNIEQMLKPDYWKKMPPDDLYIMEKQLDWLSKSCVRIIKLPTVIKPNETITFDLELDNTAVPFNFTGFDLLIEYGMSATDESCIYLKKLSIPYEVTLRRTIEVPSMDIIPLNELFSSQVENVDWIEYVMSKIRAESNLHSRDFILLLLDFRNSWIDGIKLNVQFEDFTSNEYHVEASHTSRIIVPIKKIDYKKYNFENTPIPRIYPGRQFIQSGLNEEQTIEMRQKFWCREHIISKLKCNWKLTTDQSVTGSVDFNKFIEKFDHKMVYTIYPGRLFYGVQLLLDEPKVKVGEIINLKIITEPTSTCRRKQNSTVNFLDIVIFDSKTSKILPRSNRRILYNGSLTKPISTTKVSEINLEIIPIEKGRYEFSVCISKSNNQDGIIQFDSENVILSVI

B1: prenylated Ypt1 (natural protein)
chain: not shown
modifications: prenylated with geranylgeranyl pyrophosphate in vitro; loaded with mantGDP
binding result [1]: binds

B2: Bet3 (endogenous, yeast) (natural protein)
chain: MVSTTQSRSLKAMGEEIWKNKTEKINTELFTLTYGSIVAQLCQDYERDFNKVNDHLYSMGYNIGCRLIEDFLARTALPRCENLVKTSEVLSKCAFKIFLNITPNITNWSHNKDTFSLILDENPLADFVELPMDAMKSLWYSNILCGVLKGSLEMVQLDCDVWFVSDILRGDSQTEIKVKLNRILKDEIPIGED
stoichiometry N [2]: 2
stoichiometry N [3]: 2
